In publication PMC9951844 (Nature Communications, 2023):

How the values were obtained:
[1] = biological target: SARS-CoV-2 Kappa (B.1.617.1) spike ECD (SARS-CoV-2 Kappa (B.1.617.1), strain)
[2] = biological target: SARS-CoV-2 Omicron BA.1 (B.1.1.529) RBD (SARS-CoV-2 Omicron BA.1 (B.1.1.529), strain)
[3] = biological target: SARS-CoV-2 wildtype S1 (SARS-CoV-2 wildtype (Wuhan), UniProt P0DTC2)
[4] = biological target: S-R/Wildtype spike (SARS-CoV-2 hCoV-19/Wuhan/WIV04/2019, UniProt P0DTC2, stabilised)
[5] = biological target: Delta spike (based on S-R/Wildtype spike) (SARS-CoV-2 Delta (B.1.617.2), L452R | T478K)
[6] = biological target: SARS-CoV-2 Gamma (P.1) S1 (SARS-CoV-2 Gamma (P.1), strain)
[7] = biological target: SARS-CoV-2 Beta (B.1.351) S1 (SARS-CoV-2 Beta (B.1.351), strain)
[8] = biological target: SARS-CoV-2 Delta (B.1.617.2) S1 (SARS-CoV-2 Delta (B.1.617.2), strain)
[9] = biological target: SARS-CoV-2 Lambda (C.37) RBD (SARS-CoV-2 Lambda (C.37), strain)
[10] = biological target: Omicron BA.1 spike (based on S-R/Wildtype spike) (SARS-CoV-2 Omicron BA.1 (B.1.1.529), S371L | S373P | S375F | K417N)

Measured: binding result

B1: YB12-197 (antibody, V domains shown)
VH: EVQLVESGGGLVQPGGSLRLSCAASGFTVSSNYMNWVRQAPGKGLEWVSVIYSGGSTFYADSVKGRFTISRDNSKNTLYLQMNSLRAEDTAVYYCARDAYNYGANWGQGTLVTVSS
VL: HLVLTQSPSASASLGASVKLTCTLSSGHSNNAIAWHQQQPEKGPRYLMHLNSDGSHTKGDGIPDRFSGSSSGAERYLTISSLQSEDEAEYYCQTWGTDIHWVFGGGTKLTVR
binds: [1] | [2] | [3] | [4] | [5] | [6] | [7] | [8] | [9] | [10]

B2: YB13-281 (antibody, V domains shown)
VH: EVQLVESGGGLVKPGGSLRLSCAASGFTFSSYSMNWVRQAPGKGLEWVSSISSSSSYIHYADSVKGRFTISRDNAKNSLYLQMNSLRAEDTAVYYCARVSSKDYYDRSGYLRGDYDYGMDVWGQGTTVTVSS
VL: QSVLTQPPSVSGAPGQRVTISCTGNSSNIGAAYDVHWYQQLPGTAPKLLIYGNSNRPSGVPDRFSGSKSGTSASLAITGLQAEDEADYYCQSYDSSLSGVFGGGTKLTVL
binds: [1] | [2] | [3] | [4] | [5] | [6] | [7] | [8] | [9] | [10]

B3: YB9-120 (antibody, V domains shown)
VH: QVQLQESGPGLVKPSGTLSLTCAVSGGSIRTTKWWSWVRQPPGKGLEWIGEIHHGGNTNYNPSLKSRVTISVDKSKNQFSLKLTSVTAADTAVYYCARDGGGVGTPLEYWGQGTLVTVSS
VL: QSGLTQPASVSGSPGQSITISCTGTISDVGAYNYVSWYQQHPGRAPKVVIYDVSERPSGTSNRFSGSKSGNTASLTISGLQAEDEADYYCSSFTNTTPVVFGGGTKLTVL
binds: [1] | [2] | [3] | [4] | [5] | [6] | [7] | [8] | [9] | [10]

B4: YB13-208 (antibody, V domains shown)
V domain 1: QITLKESGPTLVKPTQTLTLTCTFSGLSLSTSGVSVGWIRQPPGKAPEWLALIYWDDDKRYSPSLTSRLSITKDTSKNQVVLTMTNMDPVDTATYYCAHPRYYGDSSGYYWIWGQGTMVTVSS
V domain 2: SYELTQPPSVSVSPGQTARITCSGDALPKQYAYWYQQKPGQAPVVVMYKTSERPSGIPERFSGSSSGTTVTLTISGVQAEDEADYYCQSADSSGFYVFGTGTQVTVL
binds: [1] | [3] | [4] | [5] | [6] | [7] | [8] | [9] | [10]
